Key:
[1] = tested on: NRP‐1; assay: SPR, VEGFR‐1 binding to immobilized NRP‐1; parameters: species or system human; conditions: NRP‐1 immobilized, VEGFR‐1 0.6-5 nM, 1:1 Langmuir model
Procedure: Fig. 2 Flt2‐11 peptide inhibits NRP‐1 binding to VEGFR‐1. SPR analysis of the interaction between VEGFR‐1 and NRP‐1 in peptide absence (A), or presence of Flt2‐11 peptide (B) or scrambled Flt2‐11 peptide (C). NRP‐1 is immobilized on the sensor chip. (A) VEGFR‐1 is injected at different concentrations (from bottom to top: 0.6 nM, cyan; 1 nM, red; 2 nM, green; 2.5 nM, blue; and 5 nM, black). […] (B) VEGFR‐1 is injected at 5 nM together with peptide Flt2‐11 at different concentrations (from top to bottom: 0, black; 5 nM, blue; 15 nM, green; 45 nM, red; 100 nM, cyan; and 800 nM, magenta). […] (C) VEGFR‐1 is injected at 5 nM together with ‘scrambled’ Flt2‐11 peptide at different concentrations (from top to bottom: 0, black; 0.5 μM, blue; 950 μM, geen; and […], red).
SPR experiments were carried out using a BIACORE X system (Biacore AB, Uppsala, Sweden). […] The reaction was carried out in 20 mM sodium acetate at pH 5.0, which is about 2 points below the theoretical NRP‐1 isoelectric point calculated using the program pI‐tool. […]
RU express the mass concentration‐dependent changes in the observed SPR signal, that is, the refractive index on the sensor chip surface. Changes in this signal are determined by the interaction between the immobilized protein (i.e., either NRP‐1 or VEGFR‐1) with the analyte protein (i.e., VEGFR‐1/Fc, α5β1 integrin or semaphorin 3A). […]

[2] = tested on: α5β1 integrin signalling in ECs; parameters: method as in PMID 24174428; conditions: phosphorylation of focal adhesion kinase or Shc; cited from earlier work

B1: VEGFR‐1: Recombinant human VEGFR‐1/Fc (321‐FL‐050), R&D Systems (protein)
chain: SKLKDPELSLKGTQHIMQAGQTLHLQCRGEAAHKWSLPEMVSKESERLSITKSACGRNGKQFCSTLTLNTAQANHTGFYSCKYLAVPTSKKKETESAIYIFISDTGRPFVEMYSEIPEIIHMTEGRELVIPCRVTSPNITVTLKKFPLDTLIPDGKRIIWDSRKGFIISNATYKEIGLLTCEATVNGHLYKTNYLTHRQTNTIIDVQISTPRPVKLLRGHTLVLNCTATTPLNTRVQMTWSYPDEKNKRASVRRRIDQSNSHANIFYSVLTIDKMQNKDKGLYTCRVRSGPSFKSVNTSVHIYDKAFITVKHRKQQVLETVAGKRSYRLSMKVKAFPSPEVVWLKDGLPATEKSARYLTRGYSLIIKDVTEEDAGNYTILLSIKQSNVFKNLTATLIVNVKPQIYEKAVSSFPDPALYPLGSRQILTCTAYGIPQPTIKWFWHPCNHNHSEARCDFCSNNEESFILDADSNMGNRIESITQRMAIIEGKNKMASTLVVADSRISGIYICIASNKVGTVGRNISFYITDVPNGFHVNLEKMPTEGEDLKLSCTVNKFLYRDVTWILLRTVNNRTMHYSISKQKMAITKEHSITLNLTIMNVSLQDSGTYACRARNVYTGEEILQKKEITIRDQEAPYLLRNLSDHTVAISSSTTLDCHANGVPEPQITWFKNNHKIQQEPGIILGPGSSTLFIERVTEEDEGVYHCKATNQKGSVESSAYLTVQGTSDKSNLE
modifications: left off: Fc, end not stated, kept
notes: Recombinant human VEGFR‐1/Fc (321‐FL‐050), R&D Systems
In the case of B1, the k off [1] is given as 0.0003 s⁻¹, the k on [1] is given as 12000 M⁻¹ s⁻¹ and the “activation of canonical α5β1 integrin signalling by EC adhesion to sVEGFR‐1” value [2] is given as “does not activate canonical α5β1 integrin signalling”.

— publication PMC9290910, “Neuropilin‐1 is required for endothelial cell adhesion to soluble vascular endothelial growth factor receptor 1” (The Febs Journal, 2021)
